Measured values as given in paper PMC10274944.

What follows are substances tested against GST-tagged MERS-CoV papain-like protease (PLpro) (MERS-CoV) (UniProt K9N7C7) (assay: BLI).

| Substance | Kd |
| --- | --- |
| ubiquitin variant A46F-K48E-E64Y (UbV3) (from UniProt P0CG48 1-76) (designed binder) | 0.00277 µM |
| ubiquitin variant A46F-K48E-G75R (from UniProt P0CG48 1-76) (designed binder) | 11.4 µM |
| ubiquitin variant A46F-K48E (UbV2) (from UniProt P0CG48 1-76) (designed binder) | 0.22 µM |
| ubiquitin variant A46F-K48E-E64Y-R74N-G75S (UbV5) (from UniProt P0CG48 1-76) (designed binder) | 0.00148 µM |
